# Measured values published in patent publication US5807824A, “C5A receptor antagonists having substantially no agonist activity” (priority 1995, dated 1998).
# T1: C5a receptor (Homo sapiens, UniProt P21730)
# T1 construct: Neutrophils were purified from human peripheral blood; endogenous in cells; host or cells: neutrophils from human peripheral blood
# T1 sequence (P21730 1-350): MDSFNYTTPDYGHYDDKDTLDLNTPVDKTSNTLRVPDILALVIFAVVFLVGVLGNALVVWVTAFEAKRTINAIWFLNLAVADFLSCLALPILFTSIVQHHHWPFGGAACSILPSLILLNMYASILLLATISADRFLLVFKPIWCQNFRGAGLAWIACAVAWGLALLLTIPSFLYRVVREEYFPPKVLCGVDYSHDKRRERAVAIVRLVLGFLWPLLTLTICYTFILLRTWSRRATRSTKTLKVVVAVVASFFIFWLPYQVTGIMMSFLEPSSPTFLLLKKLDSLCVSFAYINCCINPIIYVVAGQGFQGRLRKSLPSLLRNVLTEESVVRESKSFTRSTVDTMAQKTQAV
# Key:
# C5a receptor [1] = biological target: T1, C5a receptor; assay: C5a induced Ca++ rise assay in fura-2 loaded neutrophils; format: cell-based
# Text: The antagonism of the instant C5a analogues may be quantified as an IC50 in the calcium rise assay disclosed in Seligmann et al., Agents and Actions 21:375-378 (1987), described in detail in Example 7.
# See Hugli et al., CRC Crit. Rev. Immunol. 1:321-326 (1981) and PCT WO 92/10205. A quantitative measure of this property may also be obtained using the calcium rise assay disclosed in Seligmann et al., supra, also described in Example 7. EC50 is a measure of agonistic activity.
# Recombinant human C5a was dissolved in Hanks buffer containing 0.01% Tween-20, and all stock dilutions of C5a were made in this buffer. The acetoxymethyl ester of fura-2 (fura 2AM, Molecular Probes) was dissolved in DMSO. Neutrophils were purified from human peripheral blood by sedimentation in 6% hetastarch (HESPAN, DuPont, Waukegan, Ill., followed by counter flow elutriation as described in Chapman-Kirkland et al., J. Immunol. Meth. 142:95-104 (1991). Purified cells (2×10^6/ ml) were mixed with 0.2 uM fura- 2AM and incubated for 30 min at 37° C. in HEPES buffered Hanks solution without calcium or magnesium. Fifteen minutes before the assay, the cell suspension was transferred to a curvette containing a stir bar and calcium was added to 1 mM. The cell suspension was incubated with stirring at 37° C. Assays were terminated within 5 h of cell purification and a standard control response was obtained periodically to insure that the cell responses were not changing over the time of the experiment. The amount of fluorescence was determined using an SLM 8000 spectrofluorometer (SLM-Aminco Instruments, Urbana, Ill.). Curvettes were placed in the fluorometer and after obtaining a baseline for 10 sec, the C5a receptor antagonists to be tested for antagonistic properties were added and any change in fluoresence excitation ratio of 340 nm/380 nm (emission of 510 nm) was measured. Forty seconds after analogue addition, a challenge dose of C5a was added to a final concentration of 100 pM and the resulting change in excitation ratio was measured.
# IC50 values were used as a measure of antagonist potency. These values are defined as the concentration of C5a analogue needed to reduce the calcium rise response of the 100 pM C5a challenge dose by 50%. EC50 values were used as a measure of agonist potency. […]
# [2] = tested on: C5a-induced enhancement in vascular permeability; assay: Rabbit dermal model of inflammation ([125I]-BSA exudation at intradermal sites); format: in vivo, New Zealand White rabbits
# Method: All experiments were performed on male New Zealand White rabbits weighing 2.5-3.0 kg. The backs of the rabbits were shaved and 40-50 skin sites were designated with markers of different colors. Different stimuli (i.e., C5a, C5a analogue, C5a+C5a analogue, vehicle control, etc.) were injected intradermally at 0.1 ml/site using a sterile, disposable, 26 gauge, 0.5 in. needle and 1.0 cc tuberculin syringe. I.D. injections were administered in replicates of six, roughly 45 minutes before euthanization. C5a alone was injected at a dose of 50 ng/site, and the C5a receptor antagonists were co-injected at various concentrations with the same dose of C5a. At 20 minutes prior to euthanization, 18-36 uCi of [125I]-labeled bovine serum albumin in 1.0 ml physiological saline were introduced into the systemic circulation via the marginal auricular vein. At 45 minutes, the rabbit was euthanized with an I.V. overdose of sodium pentobarbital. […]
# After death, the dorsal skin was excised and pinned to a wooden dissecting board. […] This procedure reduced variation among skin sites and decreased background radioactivity. […] Injection sites were then analyzed for their radioactive content using a Gamma Counter (Genesys).
# C5a receptor [3] = biological target: T1, C5a receptor; assay: Receptor binding assay: displacement of [125I]Bolton-Hunter labelled C5a from PMNL membranes
# Method: C5a and C5a receptor antagonists were tested for their affinity for the C5a receptor. […] PMNLs were resuspended in Hanks balanced salt solution, without Ca^++ and Mg^++ and which contained 10 mM HEPES at pH 7.3, 2.5 mM MgCl2, 100 units/ml DNAse I, 0.1 mM PMSF, 10 μg/ml aprotonin and 10 μg/ml leupeptin. They were then equilibrated at 400 psi for 20 min at 4° C. in a nitrogen cavitation bomb. After evacuation into 3 volumes 0.5M KHCO3 containing 25 mM EDTA and the protease inhibitors listed above, the gelatinous material was removed with forceps and the mixture was centrifuged at 400×g for 10 min at 4° C. The resulting supernatant was centrifuged at 50,000×g for 60 min at 4° C. The pellets from the aliquots representing 200×10^6 cells were stored at -70° C. For binding studies, these membranes were resuspended at an equivalent of 20×10^6 cells/ml in 50 mM HEPES at pH 7.3, containing 1 mM CaCl2, 5 mM MgCl2, 0.1 mM PMSF, 0.1% bacitracin and 0.5% BSA.
# Nonspecific binding was determined in the presence of 10 nM unlabelled C5a. The binding reaction was initiated by the addition of the PMNL membranes and was continued for 120 min at 4° C. Bound and free radioactivity were separated by vacuum filtration through GF/C glass fiber filters (Whatman), pretreated for 90 min with 0.05% PEI (polyethyleneimine) using a Cell Harvester (Brandel, Gaithersburg, Md.). Filters were washed with 3×5 ml of ice-cold 5 mM Tris buffer at pH 7.4 and counted in a multiwell Gamma counter (Genesys). Data were analyzed using the non-linear regression analysis program, RS/1 (Bolt, Beranek and Newman, Boston) and expressed as IC50 values. The results are set forth below in Table 4 as Ki values using the Cheng-Presoff equation. See Braunwalder et al., supra.
# C5a-induced neutropenia = C5a-induced neutropenia in the rabbit; format: in vivo, New Zealand White rabbits; settings: i.v. bolus; for Inhibition of C5a-induced neutropenia versus vehicle-treated rabbits: 100 ng C5a
# Method: All experiments were performed on male New Zealand White rabbits weighing 2.5-3.0 kg. Rabbits were anesthetized with 10 mg/kg xylazine and 50 mg/kg ketamine administered in combination intramuscularly. A 25 gauge butterfly catheter was inserted in the lateral ear vein to use for infusions. Each blood sample (0.2 ml) was collected from the central ear artery into a plastic syringe fitted with a 25 gauge, 5/8 inch needle and charged with 7.5% EDTA as an anticoagulant. Blood was immediately expressed into a microcentrifuge tubes containing 10 microliters of 7.5% EDTA. An initial arterial blood sample (#1) was obtained and immediately thereafter vehicle or the C5a analogue of Example 8 was infused intravenously (bolus injection). Twenty seconds later, a second blood sample (#2) was obtained and twenty seconds thereafter 100 ng of C5a in 0.2 ml were infused intravenously (bolus injection). Twenty seconds later, a third blood (#3) sample was taken. Thirty minutes later, a second round of blood sample (#4)----20 seconds--C5a infusion--20 seconds--blood sample (#5) was performed. Blood samples were evaluated by automated hematologic analysis (Technicon H*1) using software specific for rabbit blood. Reductions in neutrophil counts (number per milliliter) induced by C5a(C5a-induced neutropenia, determined by comparing blood sample #3 to #2 and #5 to #4) were compared between vehicle-treated and C5a analogue-treated animals.
# [4] = Table 6, Example 10 comparison with decapeptide
molecule,measurement,setting,value
"C5a (1-71, T1M, C27S, Q71C) (protein, UniProt P01031 678-751, looked up, variant T1M C27S Q71C, C5a anaphylatoxin) C5a anaphylatoxin: MLQKKIEEIAAKYKHSVVKKCCYDGASVNNDETCEQRAARISLGPRCIKAFTECCVVASQLRANISHKDMCLGR",IC50,C5a receptor [1]; [4],51 nM
same,Concentration up to which tested with agonist activity not detected,C5a receptor [1]; calcium rise assay,> 3 µM
same,Pro-inflammatory reaction (agonist properties in vivo),[2]; analogue at 175 ng/site intradermally,did not cause a pro-inflammatory reaction
same,ID50 (dose causing 50% reduction in radioactivity produced by C5a),[2]; co-injected intradermally with 50 ng C5a/site,70 ng/site
same,Ki,"C5a receptor [3]; Table 4, [125I]BH-C5a 4.0 pM, PMNL membranes, Cheng-Prusoff",0.2 nM
same,Ki,C5a receptor [3]; [4],0.04 nM
same,"Effect on baseline neutrophil counts (agonistic, C5a-like properties)",C5a-induced neutropenia; before C5a challenge,did not alter baseline neutrophil counts from normal
same,Inhibition of C5a-induced neutropenia versus vehicle-treated rabbits,C5a-induced neutropenia; 30-minute C5a challenge interval,41%
same,Inhibition of C5a-induced neutropenia versus vehicle-treated rabbits,C5a-induced neutropenia; 40-second C5a challenge interval,67%
